Reference: patent US20230052646A1 (JJP BIOLOGICS SP Z O O, published 2023)

How the values were obtained:
[1] = biological target: T1, membrane-bound full-length human HVEM on stable HVEM-transfected HEK293F cells (clone no. 128) (human, UniProt Q92956 39-283); test: FACS, Ab 10 µg/mL then biotinylated BTLA on HVEM-HEK293F
T1 construct: The same cDNA was also expressed on Sf9 insect cells; also called TNFRSF14; CD270
T1 sequence: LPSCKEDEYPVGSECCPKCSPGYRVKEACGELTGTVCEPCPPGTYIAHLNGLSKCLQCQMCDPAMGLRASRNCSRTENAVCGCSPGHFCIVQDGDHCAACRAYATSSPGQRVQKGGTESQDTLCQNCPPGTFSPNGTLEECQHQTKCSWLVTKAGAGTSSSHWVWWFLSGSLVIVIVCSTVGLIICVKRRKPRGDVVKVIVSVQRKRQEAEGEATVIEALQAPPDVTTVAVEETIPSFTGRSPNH
Method: Generation of human ‘full-length’ HVEM-transfected HEK293F cells (clone no. 128) is described in Example 1a. Binding of soluble human BTLA, of soluble human CD160, of soluble human LIGHT, and of soluble human TNFβ on surface human HVEM-transfected cells was analysed by FACS analysis. To this end, stable human full-length HVEM-transfected HEK293F cells were put at 10×10⁶ cells/mL in ice-chilled phosphate-buffered saline containing 0.1% BSA (Sigma)/0.05% NaN₃ (PBS/BSA/NaN₃) supplemented with 50 μg/mL human IgGs (blocking possible Fcγ receptors; Sigma) for 10 minutes at 4° C. Then, 10 μL/tube (i.e., 0.1×10⁶ cells) of these cells were incubated with or without 100 μL purified chimeric mouse/human anti-HVEM antibody at 10 μg/mL/tube or a human IgG4/κ (Sigma) negative isotype control at 10 μg/mL/tube for 30 minutes at 4° C. After this (i.e., without washing), cells were subsequently incubated with 1 μg/mL soluble biotinylated human BTLA (Sino Biological Inc), with 10 μg/mL soluble his-tagged human CD160 (Sino Biological Inc), with 1 μg/mL soluble his-tagged human LIGHT (Sino Biological Inc), or with 0.1 μg/mL soluble biotinylated human TNFβ (Sino Biological Inc) in PBS/BSA/NaN₃ for 30 minutes at 4° C. After extensive washing in PBS/BSA/NaN₃, cells were incubated with 1:200 diluted PE-conjugated streptavidin (detection BTLA and TNFβ; Jackson ImmunoResearch) or with biotinylated mouse anti-his antibody (detection CD160 and LIGHT; R&D Systems) at 10 μg/mL for 30 minutes at 4° C. After extensive washing in PBS/BSA/NaN₃, cells were incubated with 1:200 diluted PE-conjugated streptavidin (detection CD160 and LIGHT; Jackson ImmunoResearch) for 30 minutes at 4° C. After extensive washing in PBS/BSA/NaN₃, cells were fixed in 4% formaldehyde in PBS/BSA/NaN₃ for 30 minutes at 4° C. Binding of ligands BTLA, CD160, LIGHT and TNFβ on membrane human HVEM was measured using a flow cytometer (model FACSCalibur; BD Biosciences). For comparison, purified BTLA/HVEM blocking mouse anti-human HVEM antibody counterparts no. 36H12, 45H6, 48H6, 11H7, and 49G4 at 10 μg/mL/tube and a mouse IgG1 (BD Biosciences) negative isotype control at 10 μg/mL/tube were run in parallel.

[2] = biological target: T2, membrane-bound full-length cynomolgus monkey HVEM on transiently transfected HEK293F cells (cynomolgus monkey (Macaca fascicularis)); test: FACS, undiluted hybridoma supernatant
T2 construct: also called cynomolgus HVEM
T2 chain: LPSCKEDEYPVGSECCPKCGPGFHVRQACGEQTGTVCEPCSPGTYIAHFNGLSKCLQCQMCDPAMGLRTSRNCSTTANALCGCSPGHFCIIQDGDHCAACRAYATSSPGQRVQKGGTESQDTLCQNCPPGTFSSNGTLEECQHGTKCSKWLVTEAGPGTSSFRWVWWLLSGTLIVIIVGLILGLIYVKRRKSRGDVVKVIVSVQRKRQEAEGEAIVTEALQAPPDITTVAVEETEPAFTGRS
Method: Generation of human ‘full-length’ HVEM-transfected HEK293F cells (clone no. 128) is described in Example 1a. […] After 72 hours, surface cynomolgus monkey HVEM expression on transfected cells was analysed by FACS analysis. To this end, stable human full-length HVEM-transfected HEK293F cells and transient cynomolgus monkey full-length HVEM-transfected HEK293F cells were put at 10×10⁶ cells/mL in ice-chilled phosphate-buffered saline containing 0.1% BSA (Sigma)/0.05% NaN₃ (PBS/BSA/NaN₃) supplemented with 50 μg/mL human IgGs (blocking of possible Fcγ receptors; Sigma) for 10 minutes at 4° C. Then, 10 μL/tube (i.e., 0.1×10⁶ cells) of these cells were incubated with 100 μL undiluted hybridoma supernatant/tube for 30 minutes at 4° C. Phycoerythrin (PE)-conjugated mouse anti-human HVEM antibody (clone eBioHVEM-122; eBioscience) at 1:20 was run as a positive control antibody. After extensive washing in PBS/BSA/NaN₃, cells were subsequently incubated with 1:200 diluted PE-conjugated goat anti-mouse IgG Fcγ-specific antibodies (Jackson ImmunoResearch) for 30 minutes at 4° C. After extensive washing in PBS/BSA/NaN₃, cells were fixed in 2% formaldehyde in PBS/BSA/NaN₃ for 30 minutes at 4° C. Binding of antibodies was measured using a flow cytometer (model FACSCalibur; BD Biosciences).

% blocking of ligand binding [1]: > 95% | binding result [2]: no binding
B1: mouse anti-human HVEM antibody no. 36H12 (antibody, mouse IgG1, V domains shown)
VH: EVQLQQSGAGLVKPGASVKLSCTASGFNIKDTYMHWVRQRPEQGLEWIGRIDPATANTKYDPKFQGKATLTTDTSSNTAYLQLSSLTSEDTAVYYCVTYGYDVSWFAYWGLGALVTVSA
VL: DVLMTQTPLSLPVSLGDQASISCRSSQSIVHSNGITYLEWYLQKPGQSPKLLIYKVSNRFSGVPDRFSGSGSGTDFTLKISRVEAEDLGVYYCFQGSHVPLTFGAGTKLELK
notes: mouse IgG1/kappa; also called 36H12 (mouse)
